Measurements as given in paper PMC7719796, “Structural Insights on Tiny Peptide Nucleic Acid (PNA) Analogues of miRNA-34a: An in silico and Experimental Integrated Approach” (Frontiers in Chemistry, 2020).

System: Kelly neuroblastoma cells
Assay: PNA cellular uptake assay (fluorescence of cell lysate)
Format: cell-based, Human
Details: 0.1 μM in Opti-MEM, no transfecting agent, 24 h incubation (text; method: 6 h at 37°C, then 48 h), fluorescence of cell lysate and media 485/535 nm, 3 biological repeats and 4 technical repeats
Source text: Cellular uptake of the described tiny PNA sequence was studied in vitro on Human Kelly neuroblastoma cell line, without the use of any transfection agents, and compared to previously reported results from our group (Piacenti et al., [2019]). In particular, the PNA oligomers were provided with short peptide carriers at both termini consisting of a trilysines segment at the C-terminus and one lysine at the N-terminus (FITC-PNA2) or Cys-Lys dipeptide at the N-terminus (FITC-PNA3) (Table 1), that was previously reported by Fabani et al. ([2010]) to promote cellular uptake for PNA single strands. Kelly cells were incubated for 24 h with FITC-PNA2 or FITC-PNA3 sequences individually, at minimal 0.1 μM concentration in optiMEM, without the use of any transfecting agent and using a protocol for miRNA mimics delivery, which was previously optimized (Curtin, [2018]). Both peptide carriers were able to provide internalization of PNA sequences albeit to a different extent (Figure 9A); uptake was slightly higher than 3% for FITC-PNA2 and almost 5% for FITC-PNA3.
Kelly cells were seeded in 6-well plates in duplicates at 0.5 × 10^6 density. […] The fluorescence of the cell lysate and of the media was read in a dual beam plate reader, at 485/535 nm.

FITC- Ahx -CK - tggcagtg—KKK- NH2 [FITC-PNA3, PNA1 with Cys-Lys at N-terminus and KKK at C-terminus, FITC-Ahx; reported in previous work, used for comparison]
Cellular uptake (internalization): ~5%

FITC- Ahx -K- tggcagtg—KKK-NH2 [FITC-PNA2, PNA1 with K at N-terminus and KKK at C-terminus, Ahx linker and FITC fluorescent tag]
Cellular uptake (internalization): higher than 3%
